Source: article PMC6994217 (Science Advances, 2020)
Square brackets hold non-standard residues; d marks the D form. pY = N[C@@H](Cc1ccc(OP(=O)(O)O)cc1)C(=O)O

T1: C-terminal SH2 domain of SHP2 (SHP2^106–220) (human, UniProt Q06124-2 106-220)
T1 sequence: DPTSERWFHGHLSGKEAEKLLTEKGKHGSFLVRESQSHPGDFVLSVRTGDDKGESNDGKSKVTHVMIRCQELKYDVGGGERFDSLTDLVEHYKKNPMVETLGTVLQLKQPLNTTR

T2: N-terminal SH2 domain of SHP2 (SHP2^1–105) (human, UniProt Q06124-2 1-105)
T2 sequence: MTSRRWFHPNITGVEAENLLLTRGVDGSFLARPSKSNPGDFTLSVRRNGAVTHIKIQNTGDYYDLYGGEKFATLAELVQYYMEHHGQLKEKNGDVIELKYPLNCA

B1: PD-1 ITSM phosphopeptide, Ac-EQTE(pY)ATIVFP-NH2 (peptide)
peptide: Ac-EQTE[pY]ATIVFP-NH2
SMILES: CC[C@H](C)[C@H](NC(=O)[C@@H](NC(=O)[C@H](C)NC(=O)[C@H](Cc1ccc(OP(=O)(O)O)cc1)NC(=O)[C@H](CCC(=O)O)NC(=O)[C@@H](NC(=O)[C@H](CCC(N)=O)NC(=O)[C@H](CCC(=O)O)NC(C)=O)[C@@H](C)O)[C@@H](C)O)C(=O)N[C@H](C(=O)N[C@@H](Cc1ccccc1)C(=O)N1CCC[C@H]1C(N)=O)C(C)C
B2: PD-1 ITIM phosphopeptide, Ac-FSVD(pY)GELDFQ-NH2 (peptide)
peptide: Ac-FSVD[pY]GELDFQ-NH2
SMILES: CC(=O)N[C@@H](Cc1ccccc1)C(=O)N[C@@H](CO)C(=O)N[C@H](C(=O)N[C@@H](CC(=O)O)C(=O)N[C@@H](Cc1ccc(OP(=O)(O)O)cc1)C(=O)NCC(=O)N[C@@H](CCC(=O)O)C(=O)N[C@@H](CC(C)C)C(=O)N[C@@H](CC(=O)O)C(=O)N[C@@H](Cc1ccccc1)C(=O)N[C@@H](CCC(N)=O)C(N)=O)C(C)C

Experiments:
[1] = target: SHP2^1–220 (tandem SH2, both SH2 domains) (human) (UniProt Q06124); test: NMR DOSY
[2] = target: SHP2^1–220 (tandem SH2, both SH2 domains) (human) (UniProt Q06124); test: SEC-MALS
[3] = target: T1, C-terminal SH2 domain of SHP2 …; test: ITC
[4] = target: T2, N-terminal SH2 domain of SHP2 …; test: ITC

Molecule | stoichiometry N (peptide per protein) [1] | stoichiometry N (peptide per protein) [2] | Kd [3] [µM] | Kd [4] [µM]
diphosphorylated bidentate peptide ITIM-[dPEG4]2-ITSM, Ac-FSVD(pY)GELDFQ-(dPEG4)-(dPEG4)-EQTE(pY)ATIVFP-NH2 | 1 |  |  | 
diphosphorylated bidentate peptide ITSM-[dPEG4]2-ITSM, Ac-EQTE(pY)ATIVFP-(dPEG4)-(dPEG4)-EQTE(pY)ATIVFP-NH2 |  | 1 |  | 
B1 |  |  | 0.013 | 0.167
B2 |  |  | 26.4 | 1.9
